Laboratory results: paper PMC11162792 (Nucleic Acids Research, 2023)

T1: PEDV nsp12 (porcine epidemic diarrhea virus (PEDV), UniProt P0C6Y4)
T1 sequence: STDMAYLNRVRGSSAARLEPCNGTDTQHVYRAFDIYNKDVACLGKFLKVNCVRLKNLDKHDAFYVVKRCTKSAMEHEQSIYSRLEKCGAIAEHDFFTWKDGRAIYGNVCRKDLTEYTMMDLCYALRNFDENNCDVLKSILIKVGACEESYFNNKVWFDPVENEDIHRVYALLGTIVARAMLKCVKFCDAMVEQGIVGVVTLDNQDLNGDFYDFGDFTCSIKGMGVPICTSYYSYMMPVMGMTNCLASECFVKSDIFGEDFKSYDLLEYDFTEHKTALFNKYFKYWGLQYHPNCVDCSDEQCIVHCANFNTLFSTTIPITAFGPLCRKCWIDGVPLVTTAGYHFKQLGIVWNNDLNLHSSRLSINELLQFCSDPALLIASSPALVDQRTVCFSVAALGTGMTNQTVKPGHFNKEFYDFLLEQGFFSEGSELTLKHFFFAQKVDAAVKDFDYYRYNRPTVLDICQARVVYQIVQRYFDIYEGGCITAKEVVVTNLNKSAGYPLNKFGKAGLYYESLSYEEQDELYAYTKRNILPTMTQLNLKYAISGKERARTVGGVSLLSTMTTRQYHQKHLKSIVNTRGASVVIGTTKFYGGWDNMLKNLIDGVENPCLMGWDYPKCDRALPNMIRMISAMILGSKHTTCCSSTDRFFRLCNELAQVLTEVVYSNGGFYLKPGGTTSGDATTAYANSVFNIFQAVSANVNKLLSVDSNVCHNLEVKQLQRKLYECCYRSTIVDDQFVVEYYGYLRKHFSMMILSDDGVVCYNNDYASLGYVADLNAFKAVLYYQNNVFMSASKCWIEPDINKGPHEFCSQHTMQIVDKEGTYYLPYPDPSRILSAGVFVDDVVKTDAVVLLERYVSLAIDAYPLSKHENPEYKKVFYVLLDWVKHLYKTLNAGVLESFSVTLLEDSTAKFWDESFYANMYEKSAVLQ

B1: PEDV nsp8 (natural protein)
chain: SVASTYVGLPSYVIYENARQQYEDAVNNGSPPQLVKQLRHAMNVAKSEFDREASTQRKLDRMAEQAAAQMYKEARAVNRKSKVVSAMHSLLFGMLRRLDMSSVDTILNLAKDGVVPLSVIPAVSATKLNIVTSDIDSYNRIQREGCVHYAGTIWNIIDIKDNDGKVVHVKEVTAQNAESLSWPLVLGCERIVKLQ
B2: PEDV nsp7 (natural protein)
chain: SKLTDIKCSNVVLLGCLSSMNVSANSTEWAYCVDLHNKINLCNDPEKAQEMLLALLAFFLSKNSAFGLDDLLESYFNDNSMLQ
B3: Pair 1 primer/template RNA (short) (dsRNA)
RNA 1: CAUUCUCCUAAGAAGCUAUUAAAAUCACA
RNA 2: AAAAAGGGUUGUGAUUUUAAUAGCUUCUUAGGAGAAUG

Experiments:
[1] = biological target: PEDV nsp12-A382R (porcine epidemic diarrhea virus (PEDV)); experiment: native MS
PEDV nsp12 = biological target: T1, PEDV nsp12; experiment: native MS
[2] = biological target: PEDV nsp12 (RdRp);PEDV nsp7;PEDV nsp8 (Porcine epidemic diarrhea virus …, UniProt P0C6Y4;P0C6Y4;P0C6Y4 4101-5027;3580-3662;3663-3857, ||); experiment: native mass spectrometry

Molecule	stoichiometry N (PEDV nsp12)	further results
PEDV nsp12-A382R (enzyme)	–	stoichiometry N [1]: 2
B1	2	–
B2	1	–
B3	–	binding result [2]: binds
